{"source": "patent US20200048345A1", "about": "(INNATE PHARMA, published 2020)", "key": {"[1]": {"molecular_target": "T1, human FcRn (human, UniProt P55899 24-297; P61769 21-119, limits assumed)", "T1 construct": "also called recombinant FcRn proteins", "T1 sequence (P55899 24-297 limits assumed, chain 1 of 2)": "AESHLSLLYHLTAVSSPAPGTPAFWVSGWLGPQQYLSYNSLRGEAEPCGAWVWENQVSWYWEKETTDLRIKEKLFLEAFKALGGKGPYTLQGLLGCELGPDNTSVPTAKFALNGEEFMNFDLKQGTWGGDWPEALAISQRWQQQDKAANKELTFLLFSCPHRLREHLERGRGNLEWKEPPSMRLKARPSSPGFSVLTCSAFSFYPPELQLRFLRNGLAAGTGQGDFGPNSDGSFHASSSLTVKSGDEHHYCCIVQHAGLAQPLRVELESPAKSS", "T1 sequence (P61769 21-119 limits assumed, chain 2 of 2)": "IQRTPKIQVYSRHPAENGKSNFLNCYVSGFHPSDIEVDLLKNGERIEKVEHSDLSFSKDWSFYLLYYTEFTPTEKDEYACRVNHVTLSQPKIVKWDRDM", "assay": "SPR, recombinant human FcRn immobilized on chip; Steady State"}, "[2]": {"molecular_target": "T2, Human NKp46 recombinant protein (human, UniProt O76036 22-258, limits assumed)", "T2 construct": "Soluble analyte in SPR; also called recombinant human NKp46 proteins", "T2 sequence (O76036 22-258 limits assumed)": "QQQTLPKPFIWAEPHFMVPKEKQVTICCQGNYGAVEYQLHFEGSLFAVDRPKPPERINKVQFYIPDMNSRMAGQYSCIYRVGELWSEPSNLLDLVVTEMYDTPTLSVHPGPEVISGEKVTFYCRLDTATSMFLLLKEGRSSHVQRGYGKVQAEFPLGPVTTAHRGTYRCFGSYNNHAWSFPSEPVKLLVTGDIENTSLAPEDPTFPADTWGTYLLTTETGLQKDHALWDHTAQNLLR", "assay": "SPR (Biacore T100), captured on Protein-A chip, recombinant human NKp46 6.25-400 nM, 1:1 kinetic model", "experimental": "SPR measurements were performed on a Biacore T100 apparatus (Biacore GE Healthcare) at 25° C. In all Biacore experiments HBS-EP+ (Biacore GE Healthcare) and NaOH 10 mM served as running buffer and regeneration buffer respectively. Sensorgrams were analyzed with Biacore T100 Evaluation software. Protein-A was purchased from (GE Healthcare). Human NKp46 recombinant proteins were cloned, produced and purified at Innate Pharma.\nProtein-A proteins were immobilized covalently to carboxyl groups in the dextran layer on a Sensor Chip CMS. The chip surface was activated with EDC/NHS (N-ethyl-N′-(3-dimethylaminopropyl) carbodiimidehydrochloride and N-hydroxysuccinimide (Biacore GE Healthcare)). Protein-A was diluted to 10 μg/ml in coupling buffer (10 mM acetate, pH 5.6) and injected until the appropriate immobilization level was reached (i.e. 2000 RU). Deactivation of the remaining activated groups was performed using 100 mM ethanolamine pH 8 (Biacore GE Healthcare).\nMonovalent affinity study was conducted following a regular Capture-Kinetic protocol recommended by the manufacturer (Biacore GE Healthcare kinetic wizard). Seven serial dilutions of human NKp46 recombinant proteins, ranging from 6.25 to 400 nM were sequentially injected over the captured Bi-Specific antibodies and allowed to dissociate for 10 min before regeneration. The entire sensorgram sets were fitted using the 1:1 kinetic binding model."}}}
{"binder": "CD19-F9A-NKp46-3 (bispecific antibody, human IgG1, kappa, Heterotrimer, monomeric Fc with tandem CH3, N297S, wild-type hinge cysteines) chain 1: not shown chain 2: DIVMTQSPATLSVTPGDRVSLSCRASQSISDYLHWYQQKSHESPRLLIKYASQSISGIPSRFSGSGSGSDFTLSINSVEPEDVGVYYCQNGHSFPLTFGAGTKLELKASTKGPSVFPLAPSSKSTSGGTAALGCLVKDYFPEPVTVSWNSGALTSGVHTFPAVLQSSGLYSLSSVVTVPSSSLGTQTYICNVNHKPSNTKVDKRVEPKSCDKTH chain 3: not shown", "values": [{"measurement": "Kd", "setting": "[1]", "result": 858, "unit": "nM"}, {"measurement": "Kd", "setting": "[2]", "result": 32, "unit": "nM"}, {"measurement": "koff", "setting": "[2]", "result": 0.00669, "unit": "s⁻¹"}, {"measurement": "kon", "setting": "[2]", "result": 207000, "unit": "M⁻¹ s⁻¹"}]}
